{"source": "patent US20220098269A1", "about": "(IMMATICS BIOTECHNOLOGIES, published 2022)", "data": [{"biological_target": "T1, HLA-A*02:01 (human)", "T1 construct": "Peptide-receptive MHC class I monomer after UV cleavage of a UV-sensitive ligand", "assay": "UV-ligand exchange, anti-b2m ELISA; peptide exchange yield grade", "description": "(§1) Candidate peptides for T cell based therapies according to the present invention were further tested for their MHC binding capacity (affinity). The individual peptide-MHC complexes were produced by UV-ligand exchange, where a UV-sensitive peptide is cleaved upon UV-irradiation and exchanged with the peptide of interest as analyzed. Only peptide candidates that can effectively bind and stabilize the peptide-receptive MHC molecules prevent dissociation of the MHC complexes. To determine the yield of the exchange reaction, an ELISA was performed based on the detection of the light chain (β2m) of stabilized MHC complexes. The assay was performed as generally described in Rodenko et al. (Rodenko et al., 2006).\n(§2) 96 well MAXISorp plates (NUNC) were coated over night with 2 μg/ml streptavidin in PBS at room temperature, washed 4× and blocked for 1h at 37° C. in 2% BSA containing blocking buffer. Refolded HLA-A*02:01/MLA-001 monomers served as standards, covering the range of 15-500 ng/ml. Peptide-MHC monomers of the UV-exchange reaction were diluted 100-fold in blocking buffer. Samples were incubated for 1 h at 37° C., washed four times, incubated with 2 μg/ml HRP conjugated anti-β2m for 1h at 37° C., washed again and detected with TMB solution that is stopped with […]. Absorption was measured at 450 nm. Candidate peptides that show a high exchange yield (preferably higher than 50%, most preferred higher than 75%) are generally preferred for a generation and production of antibodies or fragments thereof, and/or T cell receptors or fragments thereof, as they show sufficient avidity to the MHC molecules and prevent dissociation of the MHC complexes.", "values": [{"binder": "SLIDITHGF", "binding result": "binds"}]}, {"biological_target": "T2, HLA-A*03:01 (human)", "T2 construct": "Peptide-receptive MHC class I monomer after UV cleavage of a UV-sensitive ligand", "assay": "UV-ligand exchange, anti-b2m ELISA; peptide exchange yield grade", "description": "as §1, §2", "units": {"peptide exchange yield": "%"}, "values": [{"binder": "HLYYDVTEK", "peptide exchange yield": "50 to 75"}, {"binder": "RLWDFTMNAK", "peptide exchange yield": "50 to 75"}, {"binder": "KAYDQTHLY", "peptide exchange yield": "≥ 75"}, {"binder": "RLPAADFTRY", "peptide exchange yield": "20 to 50"}, {"binder": "IVRDLSCRK", "peptide exchange yield": "50 to 75"}, {"binder": "NLYDWSASY", "peptide exchange yield": "20 to 50"}]}, {"biological_target": "T3, HLA-A*24:02 (human)", "T3 construct": "Peptide-receptive MHC class I monomer after UV cleavage of a UV-sensitive ligand", "assay": "UV-ligand exchange, anti-b2m ELISA; peptide exchange yield grade", "description": "as §1, §2", "units": {"peptide exchange yield": "%"}, "values": [{"binder": "IYQFARLDY", "peptide exchange yield": "20 to 50"}, {"binder": "YFVDVTTRI", "peptide exchange yield": "50 to 75"}, {"binder": "FHYDDTAGYF", "peptide exchange yield": "10 to 20"}, {"binder": "VYLDASKVPGF", "peptide exchange yield": "≥ 75"}, {"binder": "HLFYDVTVF", "peptide exchange yield": "20 to 50"}, {"binder": "RYVNDYTNSF", "peptide exchange yield": "≥ 75"}, {"binder": "VYTDISHHF", "peptide exchange yield": "≥ 75"}, {"binder": "TYLPTDASLSF", "peptide exchange yield": "≥ 75"}, {"binder": "VFDETKNLL", "peptide exchange yield": "20 to 50"}, {"binder": "QYQDTTVSF", "peptide exchange yield": "50 to 75"}, {"binder": "VYIDDSVEL", "peptide exchange yield": "≥ 75"}, {"binder": "IYPDGTLLI", "peptide exchange yield": "≥ 75"}, {"binder": "QAIDLSLNF", "peptide exchange yield": "20 to 50"}, {"binder": "AFDKTIVKL", "peptide exchange yield": "20 to 50"}, {"binder": "VYVDTTELAL", "peptide exchange yield": "≥ 75"}, {"binder": "YHDQTISF", "peptide exchange yield": "10 to 20"}, {"binder": "IYLDRTLLTTI", "peptide exchange yield": "≥ 75"}, {"binder": "EYQDFSTLF", "peptide exchange yield": "≥ 75"}, {"binder": "IFVPTDRSL", "peptide exchange yield": "20 to 50"}, {"binder": "FYDLSIQSF", "peptide exchange yield": "≥ 75"}, {"binder": "KSYHDQTISF", "peptide exchange yield": "≥ 75"}, {"binder": "RQDESYLNF", "peptide exchange yield": "20 to 50"}]}, {"biological_target": "T4, HLA-B*07:02 (human)", "T4 construct": "Peptide-receptive MHC class I monomer after UV cleavage of a UV-sensitive ligand", "assay": "UV-ligand exchange, anti-b2m ELISA; peptide exchange yield grade", "description": "as §1, §2", "units": {"peptide exchange yield": "%"}, "values": [{"binder": "LPFFTDKTLSF", "peptide exchange yield": "≥ 75"}, {"binder": "NPADISVAL", "peptide exchange yield": "≥ 75"}, {"binder": "VPRNQDESV", "peptide exchange yield": "≥ 75"}, {"binder": "HPFGYDLTL", "peptide exchange yield": "≥ 75"}, {"binder": "SPKIFDSSW", "peptide exchange yield": "50 to 75"}, {"binder": "GEPTSDITLL", "peptide exchange yield": "50 to 75"}, {"binder": "FPYYLKIDY", "peptide exchange yield": "50 to 75"}, {"binder": "HPDLTSMTF", "peptide exchange yield": "≥ 75"}, {"binder": "APFKDVTEY", "peptide exchange yield": "50 to 75"}]}, {"biological_target": "T5, HLA-B*08:01 (human)", "T5 construct": "Peptide-receptive MHC class I monomer after UV cleavage of a UV-sensitive ligand", "assay": "UV-ligand exchange, anti-b2m ELISA; peptide exchange yield grade", "description": "as §1, §2", "values": [{"binder": "DVSDKITFM", "binding result": "binds"}, {"binder": "DILDRTGHQL", "binding result": "binds"}]}, {"biological_target": "T6, HLA-B*44:05 (human)", "T6 construct": "Peptide-receptive MHC class I monomer after UV cleavage of a UV-sensitive ligand", "assay": "UV-ligand exchange, anti-b2m ELISA; peptide exchange yield grade", "description": "as §1, §2", "units": {"peptide exchange yield": "%"}, "values": [{"binder": "AESLAVHDI", "peptide exchange yield": "50 to 75"}, {"binder": "AEFFDYTVRTL", "peptide exchange yield": "≥ 75"}, {"binder": "DEAVRDITW", "peptide exchange yield": "≥ 75"}, {"binder": "DETAAYKIM", "peptide exchange yield": "50 to 75"}, {"binder": "GEYRCQTDL", "peptide exchange yield": "≥ 75"}, {"binder": "KEVDDTLLVNEL", "peptide exchange yield": "≥ 75"}, {"binder": "KPREEQYDSTY", "peptide exchange yield": "≥ 75"}, {"binder": "AQDTTYLWW", "peptide exchange yield": "≥ 75"}, {"binder": "QEVDISLHY", "peptide exchange yield": "≥ 75"}, {"binder": "RDATASLW", "peptide exchange yield": "≥ 75"}, {"binder": "DESKYTWSW", "peptide exchange yield": "≥ 75"}, {"binder": "DETHTLQF", "peptide exchange yield": "≥ 75"}, {"binder": "TDFTKIASF", "peptide exchange yield": "≥ 75"}, {"binder": "AERDLDVTI", "peptide exchange yield": "≥ 75"}, {"binder": "TEGDFTKEASTY", "peptide exchange yield": "50 to 75"}, {"binder": "DETIWYVRF", "peptide exchange yield": "≥ 75"}, {"binder": "KENQDHSYSL", "peptide exchange yield": "≥ 75"}, {"binder": "LENMYDLTF", "peptide exchange yield": "≥ 75"}]}]}
